These results are taken from article PMC12717012, “Hierarchical interactions between nucleolar and heterochromatin condensates are mediated by a dual-affinity protein” (Nature Cell Biology, 2025).

The target in this test is T1, His-tagged recombinant Pit, wild type (Pit^WT) (Drosophila melanogaster, UniProt Q9VD51 1-680).
T1 construct: also called His-tagged Pit; pBH4-Pit; source: E. coli BL21, purified (Ni-NTA, size-exclusion chromatography on Superdex 200); not shown: 6×His, N-terminal, kept
The experiment in a line: pull-down; His-tagged Pit (5 µM) as bait with purified HP1a as prey (5 µM; titrated from 50 to 5 µM); 20 mM sodium phosphate, 50 mM NaCl, 10 mM imidazole, 4 °C; captured on Ni-NTA magnetic beads; western blot; background control beads + HP1a only. As to conditions: both partners purified.

T1 sequence (Q9VD51 whole entry): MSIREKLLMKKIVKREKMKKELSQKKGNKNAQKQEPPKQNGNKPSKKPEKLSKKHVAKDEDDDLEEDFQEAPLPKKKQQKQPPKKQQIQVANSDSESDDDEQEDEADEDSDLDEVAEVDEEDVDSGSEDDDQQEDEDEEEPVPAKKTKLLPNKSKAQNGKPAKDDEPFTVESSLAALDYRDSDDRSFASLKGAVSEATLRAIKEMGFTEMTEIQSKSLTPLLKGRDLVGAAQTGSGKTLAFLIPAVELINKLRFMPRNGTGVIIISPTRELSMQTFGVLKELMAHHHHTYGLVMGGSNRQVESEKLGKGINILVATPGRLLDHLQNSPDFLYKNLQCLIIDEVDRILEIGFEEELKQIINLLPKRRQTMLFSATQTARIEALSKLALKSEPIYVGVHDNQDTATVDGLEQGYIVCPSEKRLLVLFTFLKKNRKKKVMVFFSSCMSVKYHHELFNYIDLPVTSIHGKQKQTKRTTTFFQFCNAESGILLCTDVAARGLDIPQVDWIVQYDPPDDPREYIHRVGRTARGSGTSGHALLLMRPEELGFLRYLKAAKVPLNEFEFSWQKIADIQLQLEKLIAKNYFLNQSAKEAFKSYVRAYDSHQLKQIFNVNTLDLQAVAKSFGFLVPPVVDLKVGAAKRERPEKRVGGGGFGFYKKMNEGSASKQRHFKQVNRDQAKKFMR

B1: purified HP1a, wild type (HP1a^WT) (natural protein, Drosophila melanogaster, UniProt P05205 1-206, looked up)
chain: MGKKIDNPESSAKVSDAEEEEEEYAVEKIIDRRVRKGKVEYYLKWKGYPETENTWEPENNLDCQDLIQQYEASRKDEEKSAASKKDRPSSSAKAKETQGRASSSTSTASKRKSEEPTAPSGNKSKRTTDAEQDTIPVSGSTGFDRGLEAEKILGASDNNGRLTFLIQFKGVDQAEMVPSSVANEKIPRMVIHFYEERLSWYSDNED
notes: HP1a, Drosophila melanogaster; It speaks of HP1a dimers, but no dimerisation experiment is done here
Turning to B1, the binding result is given as “binds”.
